Results reported in patent publication US20230149509A1 (Genentech, published 2023).
Substitutions are numbered along the chain they refer to.

Experiments:
[1] = molecular target: T1, CD122/CD132 on human lymphocytes (CD8+ T cells and NK cells in human PBMCs) (human, UniProt P31785 23-369); assay: cell-based or functional assay
T1 sequence 1: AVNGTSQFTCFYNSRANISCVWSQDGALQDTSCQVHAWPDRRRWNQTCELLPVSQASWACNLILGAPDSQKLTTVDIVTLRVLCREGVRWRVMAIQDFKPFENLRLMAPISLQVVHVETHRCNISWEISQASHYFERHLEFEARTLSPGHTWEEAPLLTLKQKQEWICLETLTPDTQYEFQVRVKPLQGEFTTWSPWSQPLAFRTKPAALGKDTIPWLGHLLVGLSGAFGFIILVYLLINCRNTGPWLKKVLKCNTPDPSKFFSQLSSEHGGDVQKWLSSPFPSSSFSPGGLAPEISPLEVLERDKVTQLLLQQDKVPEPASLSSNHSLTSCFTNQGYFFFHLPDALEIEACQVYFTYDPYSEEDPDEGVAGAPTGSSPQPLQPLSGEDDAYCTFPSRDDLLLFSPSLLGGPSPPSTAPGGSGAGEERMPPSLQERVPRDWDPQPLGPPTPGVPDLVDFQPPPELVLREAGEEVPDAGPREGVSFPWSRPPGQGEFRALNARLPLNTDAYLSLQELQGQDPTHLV
T1 sequence 2: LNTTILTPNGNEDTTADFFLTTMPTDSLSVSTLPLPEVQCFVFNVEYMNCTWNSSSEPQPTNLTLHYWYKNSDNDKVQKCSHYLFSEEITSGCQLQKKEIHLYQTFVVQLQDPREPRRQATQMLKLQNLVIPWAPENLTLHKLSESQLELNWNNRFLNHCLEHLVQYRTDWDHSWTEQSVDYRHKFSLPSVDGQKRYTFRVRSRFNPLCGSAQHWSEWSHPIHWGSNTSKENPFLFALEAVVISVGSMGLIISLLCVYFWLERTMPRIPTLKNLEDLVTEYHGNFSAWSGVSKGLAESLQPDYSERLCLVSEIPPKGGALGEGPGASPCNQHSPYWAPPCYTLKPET

[2] = molecular target: T2, CD122/CD132 on cynomolgus monkey lymphocytes (CD8+ T cells and NK cells in cynomolgus PBMCs) (cynomolgus monkey, UniProt Q38J85 27-551; A0A2K5VGJ6 23-369); assay: cell-based or functional assay
T2 sequence (looked up) 1: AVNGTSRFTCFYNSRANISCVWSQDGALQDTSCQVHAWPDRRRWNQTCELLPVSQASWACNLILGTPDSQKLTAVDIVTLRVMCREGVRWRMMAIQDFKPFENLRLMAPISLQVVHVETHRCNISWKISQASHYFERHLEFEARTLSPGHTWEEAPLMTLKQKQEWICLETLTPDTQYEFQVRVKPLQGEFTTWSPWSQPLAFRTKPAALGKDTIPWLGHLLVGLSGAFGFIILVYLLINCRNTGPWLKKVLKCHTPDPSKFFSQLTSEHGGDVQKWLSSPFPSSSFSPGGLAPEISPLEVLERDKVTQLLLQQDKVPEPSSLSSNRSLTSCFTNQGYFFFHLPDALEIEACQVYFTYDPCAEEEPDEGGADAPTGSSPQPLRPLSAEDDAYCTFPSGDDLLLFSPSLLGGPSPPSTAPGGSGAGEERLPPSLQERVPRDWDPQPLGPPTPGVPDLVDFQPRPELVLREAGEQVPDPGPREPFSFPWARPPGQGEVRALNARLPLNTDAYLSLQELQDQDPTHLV
T2 sequence (looked up) 2: T1 sequence 2 with T14A, A16T, T22S, H141R, T228S, A326P

[3] = molecular target: T3, cynomolgus monkey FcRn (cynomolgus monkey, UniProt Q8SPV9 24-297; Q8SPW0 21-119); assay: BLI, pH 6.0; tested as the mixture
T3 construct: The construct is not described
T3 sequence (Q8SPV9 24-297 limits assumed, chain 1 of 2): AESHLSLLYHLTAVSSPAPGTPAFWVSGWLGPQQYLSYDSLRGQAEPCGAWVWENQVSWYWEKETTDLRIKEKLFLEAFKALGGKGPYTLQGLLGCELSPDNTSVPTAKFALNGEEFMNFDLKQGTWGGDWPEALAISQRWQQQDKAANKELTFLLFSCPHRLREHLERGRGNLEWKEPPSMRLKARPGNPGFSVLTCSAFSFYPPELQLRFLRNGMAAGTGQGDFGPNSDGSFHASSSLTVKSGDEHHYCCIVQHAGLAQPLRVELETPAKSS
T3 sequence (Q8SPW0 21-119 limits assumed, chain 2 of 2): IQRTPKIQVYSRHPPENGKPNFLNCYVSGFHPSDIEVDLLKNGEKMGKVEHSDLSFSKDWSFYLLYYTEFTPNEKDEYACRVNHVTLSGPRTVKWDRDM

[4] = molecular target: T4, mouse FcRn (mouse, UniProt Q61559 22-297; P01887 21-119); assay: BLI, pH 6.0; tested as the mixture
T4 construct: The construct is not described
T4 sequence (looked up): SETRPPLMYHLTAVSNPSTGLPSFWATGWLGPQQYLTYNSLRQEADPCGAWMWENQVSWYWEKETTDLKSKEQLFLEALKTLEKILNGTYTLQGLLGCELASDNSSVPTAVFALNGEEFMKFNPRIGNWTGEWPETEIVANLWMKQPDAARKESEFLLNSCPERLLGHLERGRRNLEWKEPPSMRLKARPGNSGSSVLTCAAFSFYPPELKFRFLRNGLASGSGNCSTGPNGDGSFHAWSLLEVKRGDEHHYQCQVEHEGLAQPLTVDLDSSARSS
T4 sequence (b2m, looked up): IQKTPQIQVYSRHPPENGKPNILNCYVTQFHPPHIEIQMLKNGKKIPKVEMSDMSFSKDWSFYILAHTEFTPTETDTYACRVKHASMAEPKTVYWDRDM

[5] = molecular target: T5, human FcRn (human, UniProt P55899 24-297; P61769 21-119); assay: BLI, pH 6.0; tested as the mixture
T5 construct: The construct is not described; also called human neonatal Fc receptor
T5 sequence (P55899 24-297 limits assumed, chain 1 of 2): as the sequence (Q8SPV9 24-297 limits assumed, chain 1 of 2) above, with D39N, Q44E, S99G, G189S, N190S, M217L, T269S counted along it
T5 sequence (P61769 21-119 limits assumed, chain 2 of 2): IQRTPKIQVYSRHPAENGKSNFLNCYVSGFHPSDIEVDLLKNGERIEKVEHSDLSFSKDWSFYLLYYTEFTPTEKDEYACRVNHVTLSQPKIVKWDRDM

[6] = molecular target: T6, human complement component 1q (C1q) (human, UniProt P02745 23-245; P02746 28-253; P02747 29-245); assay: BLI; tested as the mixture XENP24306+XENP32803
T6 construct: The subunit composition is from general knowledge; also called human C1q
T6 sequence (P02745 23-245 limits assumed, chain 1 of 3): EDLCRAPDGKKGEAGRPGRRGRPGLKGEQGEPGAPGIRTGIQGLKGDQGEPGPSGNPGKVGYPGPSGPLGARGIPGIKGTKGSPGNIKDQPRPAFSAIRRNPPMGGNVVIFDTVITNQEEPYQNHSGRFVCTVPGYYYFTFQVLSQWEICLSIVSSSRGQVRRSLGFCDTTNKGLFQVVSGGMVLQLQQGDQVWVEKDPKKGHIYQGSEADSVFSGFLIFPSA
T6 sequence (P02746 28-253 limits assumed, chain 2 of 3): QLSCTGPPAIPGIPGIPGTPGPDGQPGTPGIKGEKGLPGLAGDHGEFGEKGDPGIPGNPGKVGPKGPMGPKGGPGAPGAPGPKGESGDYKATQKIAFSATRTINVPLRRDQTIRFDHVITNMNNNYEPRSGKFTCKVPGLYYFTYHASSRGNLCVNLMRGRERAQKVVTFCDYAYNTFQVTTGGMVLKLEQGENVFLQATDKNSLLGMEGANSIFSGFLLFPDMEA
T6 sequence (P02747 29-245 limits assumed, chain 3 of 3): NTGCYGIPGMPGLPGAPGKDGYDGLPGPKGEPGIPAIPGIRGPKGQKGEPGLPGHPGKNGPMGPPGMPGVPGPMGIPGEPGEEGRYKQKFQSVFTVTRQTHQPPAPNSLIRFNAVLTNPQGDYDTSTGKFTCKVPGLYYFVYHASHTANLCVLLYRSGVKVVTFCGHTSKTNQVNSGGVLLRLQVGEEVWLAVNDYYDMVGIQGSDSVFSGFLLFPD

B1: XENP24306 (Fc fusion)
chain 1: NWVNVISDLKKIEDLIQSMHIDATLYTESNVHPSCKVTAMKCFLLELQVISLESGDASIHDTVQDLIILANNSLSSNGNVTESGCKECEELEEKNIKEFLQSFVHIVQMFINTSGGGGSEPKSSDKTHTCPPCPAPPVAGPSVFLFPPKPKDTLMISRTPEVTCVVVDVKHEDPEVKFNWYVDGVEVHNAKTKPREEEYNSTYRVVSVLTVLHQDWLNGKEYKCKVSNKALPAPIEKTISKAKGQPREPQVYTLPPSREEMTKNQVSLTCDVSGFYPSDIAVEWESDGQPENNYKTTPPVLDSDGSFFLYSKLTVDKSRWEQGDVFSCSVLHEALHSHYTQKSLSLSPGK
chain 2: ITCPPPMSVEHADIWVKSYSLYSRERYICNSGFKRKAGTSSLTECVLNKATNVAHWTTPSLKCIRGGGGSEPKSSDKTHTCPPCPAPPVAGPSVFLFPPKPKDTLMISRTPEVTCVVVDVKHEDPEVKFNWYVDGVEVHNAKTKPREEQYNSTYRVVSVLTVLHQDWLNGKEYKCKVSNKALPAPIEKTISKAKGQPREPQVYTLPPSREQMTKNQVKLTCLVKGFYPSDIAVEWESNGQPENNYKTTPPVLDSDGSFFLYSKLTVDKSRWQQGNVFSCSVLHEALHSHYTQKSLSLSPGK
notes: All experiments used a mixture of XENP24306 (~82%) and XENP32803 (~18%), printed as 'XENP24306+XENP32803'; Each result is written once for each of the two members; also called XmAb24306; XENP24306+XENP32803 (the ~82% component of the tested combination)
With B1 the “CD8+ T cell proliferation (Ki67+) in human PBMCs, EC50” value [1] was 12.7 mg/L, the “NK-cell proliferation (Ki67+) in human PBMCs, EC50” value [1] was 1.2 mg/L and the “potency on CD8+ terminal effector T cell proliferation (Ki67) in human PBMC, fold lower than XENP22853 (wild-type IL-15/wild-type IL-15Rα heterodimer Fc fusion)” value [1] was roughly 400 fold. The “potency on CD8+ terminal effector T cell proliferation (Ki67) in human PBMC, fold lower than recombinant wild-type IL-15” value [1] was roughly 900 fold, the “CD8+ T cell proliferation in cynomolgus monkey PBMCs, EC50” value [2] was 3.8 mg/L and the “NK-cell proliferation in cynomolgus monkey PBMCs, EC50” value [2] was 0.5 mg/L. B1: binds [3]; binds [4]; binds [5]. B1: no binding [6].

B2: XENP32803 (Fc fusion)
chain 1: B1 chain 1
chain 2: B1 chain 2 with K100T
notes: All experiments used a mixture of XENP24306 (~82%) and XENP32803 (~18%), printed as 'XENP24306+XENP32803'; Each result is written once for each of the two members; also called XENP24306+XENP32803 (the ~18% component of the tested combination); IL15/IL15Rα heterodimeric protein
B2 was tested, and the “CD8+ T cell proliferation (Ki67+) in human PBMCs, EC50” value [1] was 12.7 mg/L, the “NK-cell proliferation (Ki67+) in human PBMCs, EC50” value [1] was 1.2 mg/L and the “potency on CD8+ terminal effector T cell proliferation (Ki67) in human PBMC, fold lower than XENP22853 (wild-type IL-15/wild-type IL-15Rα heterodimer Fc fusion)” value [1] was roughly 400 fold. The “potency on CD8+ terminal effector T cell proliferation (Ki67) in human PBMC, fold lower than recombinant wild-type IL-15” value [1] was roughly 900 fold, the “CD8+ T cell proliferation in cynomolgus monkey PBMCs, EC50” value [2] was 3.8 mg/L and the “NK-cell proliferation in cynomolgus monkey PBMCs, EC50” value [2] was 0.5 mg/L. B2: binds [3]; binds [4]; binds [5]. B2: no binding [6].
